Assay [1] deals with T1, recombinant human TGFβ2 (human, UniProt P61812 303-414).
T1 construct: mature; also called TGFbeta2; rhTGFβ2
T1 sequence (looked up): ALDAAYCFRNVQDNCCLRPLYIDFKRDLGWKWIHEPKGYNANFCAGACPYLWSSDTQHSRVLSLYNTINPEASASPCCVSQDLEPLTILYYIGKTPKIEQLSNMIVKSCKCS
Kind of assay: BIACore, scFv. As to the method:
(§1) The off-rates for binding to TGFβ1 or TGFβ2 of the single chain Fv fragments described in this example were determined as described by Karlsson et al (R. Karlsson et al, J. Immunol. Methods 145, 229-240, 1991). The results obtained are shown in Table 2, together with dissociation constants for those which have been determined.
(Surface plasmon resonance follows binding to a sensor surface in real time, without labels.)

Assay [2] deals with T1, recombinant human TGFβ2. Kind of assay: radioreceptor assay, inhibition of 125I-TGFβ2 binding to A549 cells; concentration of antibody combining sites. The procedure: (§2) Cells are seeded at 1-2×10^5 cells/ml/well into the wells of 24-well cluster plates and grown for 24 h in serum-free DMEM. Cell monlayers are washed twice with serum-free DMEM and 0.5 ml binding medium (DMEM/Hams F12 (Sigma D-6421) containing 0.1% (v/v) BSA added to each well.
(§3) Aliqouts of ¹²⁵I-TGFβ1 or TGFβ2 (70-90 TBq/mmol; Amersham International) at 20 pM are preincubated with antibody in binding medium at room temperature for 1 h. Duplicate samples of 0.5 ml of TGFβ/antibody mixtures are then added to the cell monlayers and are incubated at 37° C. for 1-2 h. Control wells contain TGFβ only. Unbound TGFβ is removed by washing 4 times with Hank's balanced salt solution containing 0.1% BSA. Cells are solubilised in 0.8 ml 25 mM Tris HCl pH 7.5, 10% glycerol, 1% Triton X-100 at room temperature for 20 min. The contents of each well are removed and ¹²⁵I measured in a gamma counter.

Assay [3] concerns the target T1, recombinant human TGFβ2. Kind of assay: cell-based or functional assay.
Assay [4] addresses T2, recombinant human TGFβ1 (human, UniProt P01137 279-390).
T2 construct: mature; also called TGFbeta1
Kind of assay: BIACore, scFv injected over immobilised antigen. As to the method:
(§4) The antibodies were also shown to be specific for TGFβ2 compared to TGFβ1 by relative binding to theBIACore sensor chips coated with the appropriate antigen. TGFβ1 and TGFβ2 were immobilised by amine coupling to Biosensor CM5 sensorchips (Pharmacia) according to the manufacturers instructions. […] The amount of TGFβ bound was assessed as the total increase in resonance units (RUs) over this period.

The target of assay [5] is T1, recombinant human TGFβ2. Kind of assay: BIACore, scFv injected over immobilised antigen. The procedure: as §4
The target in assay [6] is T1, recombinant human TGFβ2. Kind of assay: BIAcore 2000, koff divided by kon. As to the method: (§5) To determine the kinetic parameters, a series of dilutions of the antibody samples was made in HBS from about 500 μg/ml down to less than 1 μg/ml, usually through doubling dilutions. After the antibody has been injected over the antigen surface, the surface is washed with HBS, then regenerated by stripping off the bound antibody with a pulse of 100 mM HCl. At the higher concentrations of antibody the antigen on the chip surface is saturated, and the off rate is determined on washing with buffer in the dissociation phase. For determination of the on-rate, lower concentrations of antibody are used, giving a linear binding phase in the sensorgram, allowing kₒₙ determination.
(§6) 6B1 IgG4 was purified from the GS/NS0 cell line of Example 10 as in Example 2. 6B1 single chain Fv was expressed intracellularly in E. coli, refolded in vitro (using the methodology of WO94/18227), and purified to give a homogeneous product. The values of kₒₙ and koff were determined for 6B1 IgG4 for binding to both TGFβ2 and TGFβ3, and for the single-chain Fv 6B1 for binding to TGFβ2. The dissociation constant was calculated by dividing koff by kₒₙ.

Assay [7] concerns the target T1, recombinant human TGFβ2. As to the kind of experiment: BIAcore 2000, antigen immobilised, antibody as analyte. The procedure: The immobilisation of ligand is automated by the BIACore 2000 machine, and all steps are carried out in the autosampler or in the flowcell, on the dextran surface of the chip. The buffer used throughout the immobilisation procedure, and the analysis of samples is Hepes-buffered saline (HBS) with a surfactant (Pharmacia Biosensor). The chips (Pharmacia, CM5), have dextran coating on a thin layer of gold. NHS at 100 mM and EDC at 400 mM are mixed by the autosampler, and then a fixed volume is injected over the flowcell surface. This is followed by an injection of antigen in a suitable buffer. In the case of TGFβ, a surface of the correct density was given by using 25-30 μg/ml solution of TGFβ2 (AMS) OR TGFβ3 (R & D systems) in 10 mM acetate. After injection of the ligand, the chip is blocked using 1M ethanolamine. The total amount of TGFβ bound was assessed from the total increase in resonance units over this period.
as §5, §6

Assay [8] deals with T2, recombinant human TGFβ1. As to the kind of experiment: radioreceptor assay, inhibition of 125I-TGFβ1 binding to A549 cells; concentration of antibody combining sites. As to the method: as §2, §3
In assay [9] the target is T2, recombinant human TGFβ1. Kind of assay: BIACore, scFv. As to the method:
as §1

Assay [10] concerns the target T2, recombinant human TGFβ1. As to the kind of experiment: radioreceptor assay, inhibition of 125I-TGFβ1 binding to A549 cells, Example 9.

T2 sequence (P01137 279-390 limits assumed): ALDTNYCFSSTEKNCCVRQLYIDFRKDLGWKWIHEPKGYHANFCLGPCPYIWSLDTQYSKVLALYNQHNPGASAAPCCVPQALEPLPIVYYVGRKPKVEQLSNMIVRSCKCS

B1: 14F12 scFv (scFv)
scFv: EIQLVESGGGVVQPGRSLRLSCAASGFTFSSYAMHWVRQAPAKGLEWVAVISYDGSNKYYADSVKGRFTISRDNSKNTLYLQMNSLRAEDTAVYYCARAGLETTWGQGTLVTVSSSGGGGGSGGGGSGGGGSSSELTQDPAVSVALGQTVRITCQGDSLRNYYANWYQQKPGQAPVLVIYGKNNRPSGIPDRFSGSSSGNTASLTITGARAEDEGVYYCNSRDSSGAVFGGGTKLTVLG
Regarding B1, in assay [1], the koff (commonly the rate constant with which the complex falls apart) was 0.0021 s⁻¹. In assay [2], the IC50 – broadly, the midpoint of a concentration-inhibition curve – was determined as 3 nM. For the same molecule, the “I.C.50 in TF1 assay (neutralisation of TGFβ2 inhibition of TF1 cell proliferation)” value in assay [3] was found to be 90 nM. Besides, the “increase in resonance units” value in [4] is 616 RU; in assay [5] it was 115 RU.

B2: 6B1 scFv (scFv)
scFv: EVQLVESGGGVVQPGRSLRLSCAASGFTFSSYGMHWVRQAPGKGLEWVAVIWYDGSNKYYADSVKGRFTISRDNSKNTLYLQMDSLRAEDTAVYYCGRTLESSLWGQGTLVTVSSGGGGSGGGGSGGGGSSSELTQDPAVSVALGQTVRITCQGDSLRSYYASWYQQKPGQAPVLVIYGKNNRPSGIPDRFSGSSSGNTASLTITGAQAEDEADYYCNSRDSSSTHRGVFGGGTKLTVLG
notes: also called 6B1 single chain Fv
For the molecule B2, the koff came to 0.0006 s⁻¹ in assay [1] and 0.000668 s⁻¹ in assay [7]. In assay [2], the IC50 came out at 0.3 nM. Moreover, in [6], the Kd (usually the free concentration of one partner at which half of the binding sites on the other are occupied at equilibrium, for simple one-to-one binding) came out at 2.32 nM. Moreover, the kon (in general, a measure of how fast the partners come together) in [7] was 287000 M⁻¹ s⁻¹. The “I.C.50 in TF1 assay (neutralisation of TGFβ2 inhibition of TF1 cell proliferation)” value in assay [3] was 15 nM.

B3: 6H1 scFv (scFv)
scFv: EVQLVESGGGVVQPGRSLRLSCAASGFTFSSYGMHWVRQAPGKGLEWVAVIWYDGSNKYYADSVKGRFTISRDNSKNTLYLQMDSLRAEDTAVYYCGRTLESSLWGQGTLVTVSSGGGGSGGGGSGGGGSDVVMTQSPSSLSASVGDRVTITCRASQGISNYLAWYQQKPGKAPKLLIYKASTLESGVPSRFSGSGSGTEFTLTISSLQPEDFATYYCQQSYSTPRTFGQGTKVDIKR
For the molecule B3, the koff in assay [1] was 0.0011 s⁻¹. The IC50 in assay [2] is 0.22 nM. Also, the “I.C.50 in TF1 assay (neutralisation of TGFβ2 inhibition of TF1 cell proliferation)” value in assay [3] is 1.5 nM. In addition, the figures for the “increase in resonance units” value in assay [4] and in assay [5] were 686 RU and 77 RU, respectively.

B4: 7A3 scFv (scFv)
scFv: QVQLVESGGGVVQPGRSLRLSCAASGFTFSSYGMHWVRQAPGKGLEWVAVISYDGSNKYYADSVKGRFTISRDNSKNTLYLQMNSLRAEDTAVYYCAKTGEYSGYDSSGVDVWGKGTTVTVSSGGGGSGGGGSGGGGSDIVMTQSPDSLAVSLGERATINCKSSQSLLYSYNKMNYLAWYQQKPGQPPKLLINWASTRESGVPDRFSGSGSGTDFTLTISSLQAEDVAVYYCQQYYATPLTFGHGTKVEIKR
notes: Light chain shuffle of 1-B2
With B4, the IC50 in assay [8] was greater than 100 nM.

B5: CS32 scFv (scFv)
scFv: QVQLVQSGGGVVQPGRSLRLSCAASGFTFSSYGMHWVRQAPGKGLEWVAVISYDGSIKYYADSVKGRFTISRDNSKNTLYLQMNSLRAEDTAVYYCARTGEYSGYDTSGVELWGQGTTVTVSSGGGGSGGGGSGGGGSDIVMTQSPDSLAVSLGERATINCKSSQSLLYSYNKMNYLAWYQQKPGQPPKLLINWASTRESGVPDRFSGSGSGTDFTLTISSLQAEDVAVYYCQQYYATPLTFGHGTKVEIKR
As to B5, the koff in [9] came out at 0.0012 s⁻¹. Also, the 50% inhibitory concentration (IC50) in assay [8] turned out to be 4.5 nM; in [10] it was 40 nM.

B6: 11E6 IgG (antibody, V domains shown)
VH: EIQLVESGGGVVQPGRSLRLSCAASGFTFSSYAMHWVRQAPAKGLEWVAVISYDGSNKYYADSVKGRFTISRDNSKNTLYLQMNSLRAEDTAVYYCARAGLETTWGQGTLVTVSS
VL: EVVLTQSPSSLSASVGDRVTITCRASQGIGDDLGWYQQKPGKAPILLIYGTSTLQSGVPSRFSGSGSGTDFTLTINSLQPEDFATYYCLQDSNYPLTFGGGTRLEIKR
notes: its construction as a whole antibody is not described
Consider B6, for which, in [2], the IC50 is 1.6 nM.

B7: CS37 scFv (scFv)
scFv: QVQLVQSGGGVVQPGRSLRLSCAASGFTFSSYGMHWVRQAPGKGLEWVAVISYDGSIKYYADSVKGRFTISRDNSKNTLYLQMNSLRAEDTAVYYCARTGEYSGYDTSGVELWGQGTTVTVSSGGGGSGGGGSGGGGSEIVLTQSPSSLSASVGDRVTITCRASQGIGDDLGWYQQKPGKAPILLIYGTSTLQSGVPSRFSGSGSGTDFTLTINSLQPEDFATYYCLQDSNYPLTFGGGTRLEIKR
Turning to B7, in assay [10], the IC50 was roughly 8 nM.

B8: 31G9 scFv (scFv)
scFv: QVQLVQSGGGVVQPGRSLRLSCAASGFTFSSYGMHWVRQAPGKGLEWVAVISYDGSIKYYADSVKGRFTISRDNSKNTLYLQMNSLRAEDTAVYYCARTGEYSGYDTSGVELWGQGTTVTVSSGGGGSGGGGSGGGGSDIVMTQSPSTLSASVGDRVTITCRASQGISSWLAWYQQKPGRAPKVLIYKASTLESGVPSRFSGSGSGTDFTLTISSLQPEDFATYYCQQSYSTPWTFGQGTKLEIKR
notes: VH-linker-VL in pCANTAB6; also called 31G9 single chain Fv
Regarding B8, in assay [9], the Kd is 12 nM and the koff turned out to be 0.0009 s⁻¹. For the same molecule, in assay [8], the IC50 was 30 nM.

B9: CS39 scFv (scFv)
scFv: QVQLVQSGGGVVQPGRSLRLSCAASGFTFSSYGMHWVRQAPGKGLEWVAVISYDGSIKYYADSVKGRFTISRDNSKNTLYLQMNSLRAEDTAVYYCARTGEYSGYDTSGVELWGQGTTVTVSSGGGGSGGGGSGGGGSDVVMTQSPSSLSASVGDRVTITCRASQGISNYLAWYQQKPGKAPKLLIYKASTLESGVPSRFSGSGSGTEFTLTISSLQPEDFATYYCQQSYSTPRTFGQGTKVDIKR
Turning to B9, the koff in [9] stood at 0.0017 s⁻¹. The half-maximal inhibitory concentration (IC50) in assay [8] is roughly 60 nM.

B10: 6A5 scFv (scFv)
scFv: EVQLVESGGGVVQPGRSLRLSCAASGFTFSSYGMHWVRQAPGKGLEWVAVIWYDGSNKYYADSVKGRFTISRDNSKNTLYLQMDSLRAEDTAVYYCGRTLESSLWGQGTLVTVSSGGGGSGGGGSGGGGSSSELTQDPAVSVALGQTVRITCQGDSLRSYYASWYQQKPGQAPVLVIYGKNNRPSGIPDRFAGSNSGNTASLTITGAQAEDEADYYCSSRDSSGNHVVFGGGTKLTVLG
notes: also called 6A5 single chain Fv
For B10, in assay [1], the Kd was found to be 0.7 nM and the koff was found to be 0.00014 s⁻¹. Besides, the IC50 in [2] stood at 1.5 nM. Besides, the “I.C.50 in TF1 assay (neutralisation of TGFβ2 inhibition of TF1 cell proliferation)” value in assay [3] was found to be 8 nM. Also, in assay [4], the “increase in resonance units” value was 480 RU. Moreover, the “increase in resonance units” value in [5] worked out at 71 RU.

These data come from patent US20050049403A1 (CAMBRIDGE ANTIBODY TECHNOLOGY, published 2005).
